# Experimental data from US20080095824A1, “Delivery of drugs from sustained release devices implanted in myocardial tissue or in the pericardial space” (Durect Corporation, priority 2001, published 2008).
# Read-outs that look alike come from different tables or passages of the source.
# Assays:
# [1] = Time course of infusion into the pericardial space; type: in vivo, male Wistar rats; details: for plasma concentration over time: intrapericardial infusion, 7-day period (bFGF: day 3 through day 7)
# Experimental: Substances were administered to the pericardial space of male Wistar rats weighing 250-300 grams by infusion via catheter for 1 week using an Alzet™ osmotic minipump at a volume rate of about 1 μl/hour. Blood and pericardial fluid samples were taken at various time points and the concentration of administered substances was measured fluorimetrically (for fluorescently labeled compounds) or by HPLC (for steroids). Concentration of fluorescently labeled compounds is expressed as fluorescent units/ml fluid.
# in vivo = details: rat
# Experimental: (§1) Minipumps, filled with solutions of the substances to be tested, were primed in saline at 37° C. at least 4 hours, prior to connection to the catheter. Before installing pumps, pericardial fluid and orbital sinus blood was sampled, to serve as blanks. 7 days after pump installment, rats were sacrificed by exsanguination under pentobarbitone and pericardial fluid and blood collected. To check for possible loss of substances during infusion, remaining pump contents were analyzed. […] Doses were chosen to achieve concentrations that were readily measurable but without pharmacological effects (risk of bleeding in the case of heparin); similar doses were applied systemically and intrapericardially to be able to make a good comparison between the two routes of administration. Solvent was PBS, except for Texas Red FGF-2 and cortisol which were dissolved in a 10 mg/ml solution of RSA in PBS.
# [2] = rat, in vivo
# Experimental: as §1
# [3] = Pharmacokinetics after intrapericardial or intra-arterial bolus injection; type: in vivo, rats; details: mean ± SE
# Experimental: Immediately after implantation of the pericardial catheter, rats (still under anesthesia) were provided either with a catheter in the right femoral artery essentially as described (Smits et al., 1982). Rats were allowed to recover at least 2 days before experimentation> One hour before start of the experiment, 20 μl pericardial fluid was withdrawn using a Hamilton 1705 (Hamilton Bonaduz, Bonaduz, Switzerland) syringe and 50 μl of saline were injected into pericardial space to check the integrity of the pericardial catheter. Injections of volumes up to 0.2 ml were previously shown to be without hemodynamic effects (Veelken et al., 1990). Blood (0.15-0.25 ml) was collected in a syringe, containing a minimal volume of heparin (Organon Teknika, Boxtel, the Netherlands). Pericardial fluid was diluted 10 times in PBS and the blood was centrifuged for 20 minutes at 3500 rpm to obtain plasma. These samples served as blanks for later analyses. Experiments in which substances were applied intrapericardially were started by a 50 μl bolus injection of the test substances into pericardial space, followed by 20 μl saline to flush the catheter. If substances were applied systemically, experiments were started by a 100 μl bolus injection of the substances and subsequent injection of 300 μl saline into the femoral artery catheter. FITC rat IgG, (10 mg/ml), Texas Red RSA (10 mg/ml), and FITC heparin (1 mg/ml) were dissolved in PBS.
# Pericardial fluid (20 μl) and blood samples were taken at various time points after injection. To substitute withdrawn pericardial fluid, 20 μl of saline was injected into pericardial space immediately after sampling. After every sample, the femoral artery catheter was flushed with 0.3 to 0.4 ml saline and filled with heparinized (5-10 IU/ml) saline. Plasma and pericardial fluid samples were stored at −20° C. until analysis.
# Data were standardized for bodyweights. Pharmacokinetic analysis of the data for each animal was conducted using the GPAD (GraphPAD Software, San Diego, Calif.) software package. Data were fitted to the exponential equation Ct=A.e^−αt+B. e^−βt of one-(i.e. A is fixed at 0) and two compartment models. Fits were compared using F-tests and data were log transformed for model judgement.
# [4] = In vitro release from SAIB depot of Example 2A; type: physicochemical; details: SAIB:benzyl benzoate:DL-PLG 83:12:5 depot, 500 μL in PBS pH 7.4, 37° C.
# Experimental: In this embodiment sotalol (an anti-arrhythmic) is delivered from a depot comprising sucrose acetate isobutyrate (SAIB). A formulation is prepared by mixing SAIB (Eastman Chemical Co.) and benzyl benzoate (Aldrich Chemical Co.) and ploy (DL-lactide-co-glycolide) (DL-PLG) or DL-poly(lactide) (DLPL) in a ratio of 83:12:5 (weight basis) and stirring until a homogeneous mixture is achieved. 10 μg of sotalol is added to 500 μL of the SAIB:benzyl benzoate:DLPLG formulation.
# The final depot formulation is prepared by passing the mixture repeatedly between a pair of 5 ml syringes equipped with needles. Multiple passes are performed until a solution is achieved. The final concentration of sotalol in the depot is 0.02 μg/ul.
# To determine, in vitro, the release of […] from the formulation, 500 μL of the depot is placed in 750 μL of dissolution buffer (PBS, 0.01 M, pH 7.4 with sodium azide) in a 1.5 mL Eppendorf microcentrifuge tube. The formulations are incubated at 37° C. with no agitation. The entire dissolution buffer is removed and replaced with fresh buffer at the desired sampling times (0.25, 0.5, 1, 2, 3, 4, 5, 6, 24 hr and daily thereafter). The samples are assayed for protein concentration by ELISA. The release rate of drug from this depot is about 0.3 μg per day.
# [5] = 7-day intrapericardial infusion (bFGF: days 3 to 7)
# [6] = pericardial fluid after intrapericardial bolus injection
# [7] = plasma after intra-arterial bolus injection
Compound,"ratio of concentration in pericardial fluid to concentration in plasma [1, 5]",plasma concentration over time [1],Peric/plasma ratio [2],Peric/plasma ratio ([2]; iv),"Cl (clearance, Dose/AUC) [3, 6] [mL/h/kg]","Vc (initial central compartment volume) [3, 6] [L/kg]","t1/2α [3, 6] [h]","t1/2β [3, 6] [h]","Cl (clearance, Dose/AUC) [3, 7] [mL/h/kg]","Vc (initial central compartment volume) [3, 7] [L/kg]","t1/2β [3, 7] [h]",further results
C[C@]12CCC(=O)C=C1CC[C@@H]1[C@@H]2[C@@H](O)C[C@@]2(C)[C@H]1CC[C@]2(O)C(=O)CO [Cortisol],12-50,"remained at a constant, low level",,,,,,,,,,"Kp ([1]; male, Wistar, rat, pericardial fluid and plasma, other: intrapericardial infusion, 7-day intrapericardial infusion (bFGF: days 3 to 7), read-out: ratio of concentration in pericardial fluid to concentration in plasma): 12 to 52; Kp at 7 days (in vivo; Peric/plasma ratio): 14.4 ± 0.55; Kp at 7 days (in vivo; concentrations in plasma lower than in pericardial fluid): ≥ 7; Peric. Fluid concentration ([2]; 7 days): 1.59 ± 0.44; Plasma concentration ([2]; 7 days): 0.11 ± 0.03"
Texas Red FGF-2: Texas Red-labelled fibroblast growth factor-2 (basic FGF),2-10,remained at a low level,6.85 ± 1.61 (4),1.01 ± 0.38 (2),0.483 ± 0.0198,0.000497 ± 7e-05,0.288 ± 0.0917,1.7 ± 0.317,5.05 ± 0.618,0.03999 ± 0.000923,5.63 ± 0.517,concentration in the pericardial fluid over time ([1]; between day 3 and day 7 after the start of infusion): rose gradually
Texas Red RSA: Texas Red-labelled rat serum albumin,9-15,"remained at a constant, low level",8.11 ± 2.60 (4),0.98 ± 0.26 (4),0.223 ± 0.054,0.000892 ± 0.000207,0.78 ± 0.233,9.82 ± 2.22,2.43 ± 0.166,0.034734 ± 0.001761,18.87 ± 5,"concentration in the pericardial fluid ([1]; day 1 after the start of intrapericardial infusion): about 375 FU/ml; concentration in the pericardial fluid ([1]; day 3, remained at this level through day 7): about 190 FU/ml; t1/2α [3, 7]: 1.48 ± 0.247 h"
CC(C)NCC(O)COc1cccc2ccccc12 (centres unmarked) [propranolol],,,,,,,,,,,,release rate of drug from depot [4]: about 0.3 μg per day
Cortisol carbonic acid,,,,,,,,,,,,clearance derived from steady-state concentration (infusion dose rate/steady state concentration) [2]: 1.85 ± 0.211 mL/h/kg
